Molecular target: the molecule itself
Assay: thioflavin T fluorescence (fibrillation assay); self-association of the peptide into cross-beta fibrils; 40 µM peptide, 13 µM ThT, 0.5 mM DTT, 40 mM HEPES-KOH pH 7.4, 150 mM KCl or NaCl (methods), room temperature (RGG-PLD^mut-NLS also at 37 °C), at least 3 h

B1: RGG-PLD^mut-NLS (hnRNP A1 aa 218–272, D262V) (peptide)
peptide: RGGNFSGRGGFGGSRGGGGYGGSGDGYNGFGNDGSNFGGGGSYNVFGNYNNQSSN
notes: hnRNP A1, human, residues 218-272 with D262V; Synthesised on an amide resin, so the C-terminus may be amidated; source: synthetic peptide (Fmoc solid phase, RP-HPLC purified)
reduction of the ThT signal relative to PLD^mut-NLS: 30 ± 10%

B2: RGG-PLD^wt-NLS (hnRNP A1 aa 218–272, wild type) (peptide)
peptide: RGGNFSGRGGFGGSRGGGGYGGSGDGYNGFGNDGSNFGGGGSYNDFGNYNNQSSN
notes: hnRNP A1, human, residues 218-272, wild type; Synthesised on an amide resin, so the C-terminus may be amidated; source: synthetic peptide (Fmoc solid phase, RP-HPLC purified)
fold lower fibrillation (ThT) than RGG-PLD^mut-NLS: ~2 fold

B3: PLD^mut-NLS (hnRNP A1 aa 234–272, D262V) (peptide)
peptide: GGGYGGSGDGYNGFGNDGSNFGGGGSYNVFGNYNNQSSN
notes: hnRNP A1, human, residues 234-272 with D262V; Synthesised on an amide resin, so the C-terminus may be amidated; source: synthetic peptide (Fmoc solid phase, RP-HPLC purified)
binding result: binds

From paper PMC11434081, “Cross-Effects in Folding and Phase Transitions of hnRNP A1 and C9Orf72 RNA G4 In Vitro” (Molecules, 2024)
